{"source": "patent CN114605551A", "key": {"CA24-2人腹水 [1]": {"biological_target": "CA24-2人腹水", "assay": "ELISA OD450/630, antibody 125 ng/ml captured on goat anti-mouse IgG, CA24-2 human ascites, HRP-labelled same antibody"}, "CA24-2人腹水 [2]": {"biological_target": "CA24-2人腹水", "assay": "ELISA OD450/630, antibody 62.5 ng/ml captured on goat anti-mouse IgG, CA24-2 human ascites, HRP-labelled same antibody"}, "CA24-2人腹水 [3]": {"biological_target": "CA24-2人腹水", "assay": "ELISA OD450/630: supernatant of transiently transfected CHO cells diluted 1000-fold, captured on goat anti-mouse IgG, CA24-2 human ascites, HRP-anti-CA24-2 detection; wells without supernatant OD <0.1"}, "CA24-2人腹水 [4]": {"biological_target": "CA24-2人腹水", "assay": "ELISA OD450/630, antibody 0 ng/ml (blank well), CA24-2 human ascites, HRP-labelled same antibody"}, "CA24-2人腹水 [5]": {"biological_target": "CA24-2人腹水", "assay": "ELISA OD450/630, antibody 31.25 ng/ml captured on goat anti-mouse IgG, CA24-2 human ascites, HRP-labelled same antibody"}, "CA24-2人腹水 [6]": {"biological_target": "CA24-2人腹水", "assay": "ELISA OD450/630, antibody 15.625 ng/ml captured on goat anti-mouse IgG, CA24-2 human ascites, HRP-labelled same antibody"}, "CA24-2人腹水 [7]": {"biological_target": "CA24-2人腹水", "assay": "ELISA OD450/630, antibody 7.813 ng/ml captured on goat anti-mouse IgG, CA24-2 human ascites, HRP-labelled same antibody"}}}
{"binder": "实施例1的抗CA24-2抗体(WT) (antibody, mouse IgG1, kappa, V domains shown) VH: EVKLVESGGGLVQPGGSLRLTCATSAFTFSDYYMEWVRQPPGKALEWLGFIRKKADGYTTEYSASIKGRFTISRDDSQNILYLQMNTLRAEDSATYYCARGISTATGVAYWGQGTLVTVSA VL: DIVMTQSPSSLALSVGQKVTMSCKSSQSIVNTSNQKNYLAWYQQKPGQSPKLLVYWASTRETGVPDRFIGSGSGTDFTLAISSVQAEDLADYYCQQHYSVPFTFGSGTKLEIKR", "values": [{"measurement": "OD450", "setting": "CA24-2人腹水 [1]", "value": 1.63, "unit": "OD"}, {"measurement": "OD450", "setting": "CA24-2人腹水 [2]", "value": 1.46, "unit": "OD"}, {"measurement": "OD450", "setting": "CA24-2人腹水 [3]", "value": "> 1", "unit": "OD"}, {"measurement": "OD450", "setting": "CA24-2人腹水 [4]", "value": 0.052, "unit": "OD"}, {"measurement": "OD450", "setting": "CA24-2人腹水 [5]", "value": 0.734, "unit": "OD"}, {"measurement": "OD450", "setting": "CA24-2人腹水 [6]", "value": 0.329, "unit": "OD"}, {"measurement": "OD450", "setting": "CA24-2人腹水 [7]", "value": 0.246, "unit": "OD"}]}
